Assays:
[1] = target: GFP-tagged ADP-ribosylation-deficient NuMA, NuMA^PARmut construct (UniProt Q14980); assay: co-IP; GFP-trap magnetic beads on the chromatin fraction of cells co-transfected with myc-TDP1 and treated with 10 uM H2O2 for 10 min on ice in the dark; immunoblot; three biological replicates
[2] = target: GFP-tagged ADP-ribosylation-deficient NuMA, NuMA^PARmut construct (UniProt Q14980); assay: co-IP; GFP-trap magnetic beads on whole-cell extracts (NP-40 lysis buffer with BaseMuncher endonuclease and ADP-HPD) of cells transfected with GFP-NuMA and co-transfected with myc-TDP1, untreated or treated with 10 uM H2O2 for 10 min on ice in the dark; 2 h at 4°C; immunoblot; three biological replicates

UniProt Q14980, sequence (Q14980 other isoform, or with tags, fused parts or gaps, change not shown): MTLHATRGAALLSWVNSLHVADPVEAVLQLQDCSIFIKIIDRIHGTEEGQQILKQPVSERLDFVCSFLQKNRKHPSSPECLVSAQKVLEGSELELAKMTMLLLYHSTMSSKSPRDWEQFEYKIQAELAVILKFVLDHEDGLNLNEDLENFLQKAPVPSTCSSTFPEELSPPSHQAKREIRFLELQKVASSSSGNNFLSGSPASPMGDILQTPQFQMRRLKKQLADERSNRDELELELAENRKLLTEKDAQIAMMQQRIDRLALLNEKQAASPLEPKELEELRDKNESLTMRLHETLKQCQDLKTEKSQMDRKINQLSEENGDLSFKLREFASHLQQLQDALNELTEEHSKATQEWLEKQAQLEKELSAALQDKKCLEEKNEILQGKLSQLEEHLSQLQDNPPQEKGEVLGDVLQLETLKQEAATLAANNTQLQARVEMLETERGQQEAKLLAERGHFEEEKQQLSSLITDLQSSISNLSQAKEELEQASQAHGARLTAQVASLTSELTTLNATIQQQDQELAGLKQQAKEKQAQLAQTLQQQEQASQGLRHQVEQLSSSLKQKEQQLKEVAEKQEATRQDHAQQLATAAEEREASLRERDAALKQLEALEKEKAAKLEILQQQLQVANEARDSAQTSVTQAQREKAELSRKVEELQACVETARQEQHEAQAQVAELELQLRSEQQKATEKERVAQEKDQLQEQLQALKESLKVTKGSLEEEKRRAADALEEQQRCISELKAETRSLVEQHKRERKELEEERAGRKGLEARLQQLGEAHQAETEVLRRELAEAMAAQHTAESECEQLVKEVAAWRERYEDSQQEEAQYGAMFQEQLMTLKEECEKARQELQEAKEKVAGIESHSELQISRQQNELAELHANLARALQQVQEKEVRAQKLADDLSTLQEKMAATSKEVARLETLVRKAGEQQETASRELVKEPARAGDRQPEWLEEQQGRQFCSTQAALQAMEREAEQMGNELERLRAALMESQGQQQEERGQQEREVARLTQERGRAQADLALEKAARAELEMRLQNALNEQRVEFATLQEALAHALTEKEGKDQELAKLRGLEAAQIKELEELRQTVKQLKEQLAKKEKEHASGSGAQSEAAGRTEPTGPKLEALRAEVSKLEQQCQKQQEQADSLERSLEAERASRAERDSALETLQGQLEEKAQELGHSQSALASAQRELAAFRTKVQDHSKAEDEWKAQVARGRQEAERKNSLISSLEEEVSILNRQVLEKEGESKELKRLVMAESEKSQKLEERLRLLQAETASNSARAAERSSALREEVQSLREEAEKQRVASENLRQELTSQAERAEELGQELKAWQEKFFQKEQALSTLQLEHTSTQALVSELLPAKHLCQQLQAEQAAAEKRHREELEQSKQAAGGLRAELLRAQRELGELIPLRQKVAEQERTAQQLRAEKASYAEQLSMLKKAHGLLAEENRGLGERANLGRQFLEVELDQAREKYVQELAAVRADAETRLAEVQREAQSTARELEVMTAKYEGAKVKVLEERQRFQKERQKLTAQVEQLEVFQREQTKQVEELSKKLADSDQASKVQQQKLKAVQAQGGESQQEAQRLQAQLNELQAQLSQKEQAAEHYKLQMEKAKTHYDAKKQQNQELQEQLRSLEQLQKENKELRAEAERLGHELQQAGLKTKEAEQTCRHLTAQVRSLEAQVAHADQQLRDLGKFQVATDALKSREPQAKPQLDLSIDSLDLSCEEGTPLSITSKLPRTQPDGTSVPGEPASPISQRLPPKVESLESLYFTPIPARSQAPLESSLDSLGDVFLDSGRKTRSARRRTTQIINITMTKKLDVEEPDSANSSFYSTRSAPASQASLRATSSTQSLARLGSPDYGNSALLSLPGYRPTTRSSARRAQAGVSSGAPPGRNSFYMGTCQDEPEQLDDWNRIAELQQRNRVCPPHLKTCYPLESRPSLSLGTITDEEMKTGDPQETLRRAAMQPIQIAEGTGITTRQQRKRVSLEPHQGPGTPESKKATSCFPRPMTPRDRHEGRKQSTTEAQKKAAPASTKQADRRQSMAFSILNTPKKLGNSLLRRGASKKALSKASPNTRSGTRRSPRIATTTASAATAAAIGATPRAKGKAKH

percent lower interaction than with NuMA^WT (chromatin fraction, H2O2-treated cells) [1]: 50%
percent decrease in interaction relative to NuMA^WT (H2O2-treated cells) [2]: 38 to 45%
percent decrease in interaction relative to NuMA^WT (untreated cells) [2]: 38 to 45%
Substance: myc-TDP1 (tyrosyl DNA phosphodiesterase 1) (from UniProt Q9NUW8 1-608) (enzyme)

— paper PMC12187637
